Data on one molecule can be found in article PMC7936274.

The target of the series is T1, OapB (Bacillus halodurans, UniProt Q9KGD7 5-102).
T1 sequence: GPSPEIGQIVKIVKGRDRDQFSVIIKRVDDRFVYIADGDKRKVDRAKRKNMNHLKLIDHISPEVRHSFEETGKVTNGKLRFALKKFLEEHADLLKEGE
Nature of the series: X-ray crystallography.

B1: OLE* (P12.2, P13, P14, P15 minimized OLE RNA) (structured_RNA)
RNA: GGCCAGUCUGGCGUUUGGUGACAGCGCCAAGUUCUUCGGAAUUGGGAAAUCCUACUGGCC
Consider B1, for which the binding result was “binds”.
